{"source": "patent US9999664B2", "about": "“HIV-1 gp120 mini V3 loop and uses thereof” (The Scripps Research Institute, priority 2011, dated 2018)", "key": {"[1]": {"target": "HIV-1JR-FL Env trimers on the surface of transfected 293T cells (Human immunodeficiency virus 1, strain JR-FL)", "test": "JR-FL cell surface binding, flow cytometry on transfected 293T cells"}, "[2]": {"target": "HIV-1 JR-FL envelope (Env) on pseudovirus (HIV-1 JR-FL)"}, "[3]": {"target": "gp120 (ELISA antigen of FIG. 3, strain not stated) (HIV-1, strain not stated)", "test": "ELISA on coated gp120, absorbance at 405 nm"}, "[4]": {"target": "HIV-1YU2 Env on the surface of transfected 293T cells (Human immunodeficiency virus 1, strain YU2)", "test": "flow cytometry on HIV-1YU2 Env-transfected 293T cells, MFI"}, "JR-FL core + mini-V3": {"target": "JR-FL core + mini-V3", "test": "ELISA on coated antigen, OD 405"}, "[5]": {"target": "HIV-1 JRCSF envelope N332A on pseudovirus (HIV-1 JR-CSF) (UniProt P20871)", "test": "cell-based or functional assay"}, "[6]": {"target": "HIV-1 JRFL envelope N332A on pseudovirus (HIV-1 JR-FL)", "test": "cell-based or functional assay"}, "[7]": {"target": "HIV-1 BaL envelope N301A on pseudovirus (HIV-1 BaL)", "test": "cell-based or functional assay"}, "[8]": {"target": "HIV-1 BaL envelope N332A on pseudovirus (HIV-1 BaL)", "test": "cell-based or functional assay"}, "[9]": {"target": "HIV-1 92RW020 envelope N332A on pseudovirus (HIV-1 92RW020)", "test": "cell-based or functional assay"}, "[10]": {"target": "HIV-1 JRCSF envelope N301A on pseudovirus (HIV-1 JR-CSF) (UniProt P20871)", "test": "cell-based or functional assay"}, "[11]": {"target": "HIV-1 ADA envelope N301A on pseudovirus (HIV-1 ADA)", "test": "cell-based or functional assay"}, "[12]": {"target": "HIV-1 SF162 envelope N332A on pseudovirus (HIV-1 SF162) (UniProt P19550)", "test": "cell-based or functional assay"}, "[13]": {"target": "HIV-1 JRFL envelope N301A on pseudovirus (HIV-1 JR-FL)", "test": "cell-based or functional assay"}, "[14]": {"target": "HIV-1 ADA envelope N332A on pseudovirus (HIV-1 ADA)", "test": "cell-based or functional assay"}, "[15]": {"target": "HIV-1 SF162 envelope N301A on pseudovirus (HIV-1 SF162) (UniProt P19550)", "test": "cell-based or functional assay"}, "[16]": {"target": "engineered outer domain mini-V3 (eODmV3), glycosylated gp120 outer domain construct (HIV-1 (base strain HxB2; mini-V3 based on JR-FL))", "test": "ELISA of IgG PGT 128 (FIG. 13)"}, "[17]": {"target": "HIV-1 JR-FL envelope (Env) on pseudovirus (HIV-1 JR-FL)", "remark": "listed apart in the source"}, "[18]": {"target": "HIV-1 JR-FL envelope (Env) on pseudovirus (HIV-1 JR-FL)", "test": "cell-based or functional assay"}, "[19]": {"target": "HIV-1 JR-CSF envelope (Env) on pseudovirus (HIV-1 JR-CSF) (UniProt P20871)", "test": "cell-based or functional assay"}, "[20]": {"target": "HIV-1 BaL envelope (Env) on pseudovirus (HIV-1 BaL)", "test": "cell-based or functional assay"}, "gp120 BaL (HIV-1 BaL)": {"target": "gp120 BaL (HIV-1 BaL)", "test": "gp120 ELISA"}, "[21]": {"target": "gp120 JR-FL (HIV-1 JR-FL)", "test": "gp120 ELISA"}, "[22]": {"target": "gp120 JR-CSF (HIV-1 JR-CSF) (UniProt P20871)", "test": "gp120 ELISA"}}, "data": [{"substance": "PGT 128 Fab", "values": [{"measurement": "EC50", "setting": "[1]", "result": 10.3, "unit": "nM"}, {"measurement": "IC50 (JR-FL neutralization)", "setting": "[2]", "result": 6.3, "unit": "nM"}]}, {"substance": "PGT 128 IgG (antibody)", "values": [{"measurement": "EC50 (read off the curve)", "setting": "[3]", "result": 0.04, "unit": "µg/mL"}, {"measurement": "EC50 (read off the curve)", "setting": "[4]", "result": 8, "unit": "nM"}, {"measurement": "EC50 (read off the curve)", "setting": "JR-FL core + mini-V3", "result": 2, "unit": "nM"}, {"measurement": "fold change in IC50 of variant envelope compared to WT envelope", "setting": "[5]", "result": 1.4, "unit": "fold"}, {"measurement": "fold change in IC50 of variant envelope compared to WT envelope", "setting": "[6]", "result": "> 200", "unit": "fold"}, {"measurement": "fold change in IC50 of variant envelope compared to WT envelope", "setting": "[7]", "result": "> 200", "unit": "fold"}, {"measurement": "fold change in IC50 of variant envelope compared to WT envelope", "setting": "[8]", "result": "> 200", "unit": "fold"}, {"measurement": "fold change in IC50 of variant envelope compared to WT envelope", "setting": "[9]", "result": 1.6, "unit": "fold"}, {"measurement": "fold change in IC50 of variant envelope compared to WT envelope", "setting": "[10]", "result": 10.7, "unit": "fold"}, {"measurement": "fold change in IC50 of variant envelope compared to WT envelope", "setting": "[11]", "result": "> 200", "unit": "fold"}, {"measurement": "fold change in IC50 of variant envelope compared to WT envelope", "setting": "[12]", "result": "> 200", "unit": "fold"}, {"measurement": "fold change in IC50 of variant envelope compared to WT envelope", "setting": "[13]", "result": "> 200", "unit": "fold"}, {"measurement": "fold change in IC50 of variant envelope compared to WT envelope", "setting": "[14]", "result": "> 200", "unit": "fold"}, {"measurement": "fold change in IC50 of variant envelope compared to WT envelope", "setting": "[15]", "result": "> 200", "unit": "fold"}, {"measurement": "apparent affinity", "setting": "[16]", "result": 46, "unit": "nM"}, {"measurement": "EC50", "setting": "[1]", "result": 2.8, "unit": "nM"}, {"measurement": "IC50 (read off the curve; HIV-1JR-FL pseudovirus)", "setting": "[17]", "result": 0.01, "unit": "µg/mL"}, {"measurement": "IC50 (JR-FL neutralization)", "setting": "[2]", "result": 0.09, "unit": "nM"}]}, {"substance": "PGT 128 IgG variant HC H52aA (antibody)", "values": [{"measurement": "EC50 (read off the curve)", "setting": "[3]", "result": 0.09, "unit": "µg/mL"}, {"measurement": "Fold change in neutralization (IC50 variant/IC50 WT antibody)", "setting": "[18]", "result": 146, "unit": "fold"}, {"measurement": "Fold change in neutralization (IC50 variant/IC50 WT antibody)", "setting": "[19]", "result": 2.4, "unit": "fold"}, {"measurement": "Fold change in neutralization (IC50 variant/IC50 WT antibody)", "setting": "[20]", "result": 9.8, "unit": "fold"}, {"measurement": "fold change in gp120 binding (EC50 variant/EC50 WT)", "setting": "gp120 BaL (HIV-1 BaL)", "result": 2.4, "unit": "fold"}, {"measurement": "fold change in gp120 binding (EC50 variant/EC50 WT)", "setting": "[21]", "result": 2.8, "unit": "fold"}, {"measurement": "fold change in gp120 binding (EC50 variant/EC50 WT)", "setting": "[22]", "result": 64, "unit": "fold"}]}, {"substance": "PGT 127 Fab", "values": [{"measurement": "EC50", "setting": "[1]", "result": 12.7, "unit": "nM"}, {"measurement": "IC50 (JR-FL neutralization)", "setting": "[2]", "result": 14.6, "unit": "nM"}]}, {"substance": "128 (-ASYWNR) (antibody)", "values": [{"measurement": "EC50 (read off the curve)", "setting": "[3]", "result": 0.7, "unit": "µg/mL"}, {"measurement": "IC50 (read off the curve; HIV-1JR-FL pseudovirus)", "setting": "[17]", "result": 0.7, "unit": "µg/mL"}]}, {"substance": "2G12 IgG (antibody)", "values": [{"measurement": "EC50", "setting": "[1]", "result": 11.6, "unit": "nM"}, {"measurement": "IC50 (JR-FL neutralization)", "setting": "[2]", "result": 8.5, "unit": "nM"}]}, {"substance": "PGT 127 IgG (antibody)", "values": [{"measurement": "EC50 (read off the curve)", "setting": "[3]", "result": 0.08, "unit": "µg/mL"}, {"measurement": "fold change in IC50 of variant envelope compared to WT envelope", "setting": "[5]", "result": "> 200", "unit": "fold"}, {"measurement": "fold change in IC50 of variant envelope compared to WT envelope", "setting": "[6]", "result": "> 200", "unit": "fold"}, {"measurement": "fold change in IC50 of variant envelope compared to WT envelope", "setting": "[7]", "result": "> 200", "unit": "fold"}, {"measurement": "fold change in IC50 of variant envelope compared to WT envelope", "setting": "[8]", "result": "> 200", "unit": "fold"}, {"measurement": "fold change in IC50 of variant envelope compared to WT envelope", "setting": "[9]", "result": 6.3, "unit": "fold"}, {"measurement": "fold change in IC50 of variant envelope compared to WT envelope", "setting": "[10]", "result": "> 250", "unit": "fold"}, {"measurement": "fold change in IC50 of variant envelope compared to WT envelope", "setting": "[11]", "result": "> 200", "unit": "fold"}, {"measurement": "fold change in IC50 of variant envelope compared to WT envelope", "setting": "[12]", "result": "> 200", "unit": "fold"}, {"measurement": "fold change in IC50 of variant envelope compared to WT envelope", "setting": "[13]", "result": "> 200", "unit": "fold"}, {"measurement": "fold change in IC50 of variant envelope compared to WT envelope", "setting": "[14]", "result": "> 200", "unit": "fold"}, {"measurement": "fold change in IC50 of variant envelope compared to WT envelope", "setting": "[15]", "result": "> 200", "unit": "fold"}, {"measurement": "EC50", "setting": "[1]", "result": 3.1, "unit": "nM"}, {"measurement": "IC50 (read off the curve; HIV-1JR-FL pseudovirus)", "setting": "[17]", "result": 0.02, "unit": "µg/mL"}, {"measurement": "IC50 (JR-FL neutralization)", "setting": "[2]", "result": 0.18, "unit": "nM"}]}, {"substance": "PGT 128 IgG variant HC W100eA (antibody)", "values": [{"measurement": "EC50 (read off the curve)", "setting": "[3]", "result": 0.5, "unit": "µg/mL"}, {"measurement": "Fold change in neutralization (IC50 variant/IC50 WT antibody)", "setting": "[18]", "result": "> 3000", "unit": "fold"}, {"measurement": "Fold change in neutralization (IC50 variant/IC50 WT antibody)", "setting": "[19]", "result": 29.7, "unit": "fold"}, {"measurement": "Fold change in neutralization (IC50 variant/IC50 WT antibody)", "setting": "[20]", "result": 658, "unit": "fold"}, {"measurement": "fold change in gp120 binding (EC50 variant/EC50 WT)", "setting": "gp120 BaL (HIV-1 BaL)", "result": 15, "unit": "fold"}, {"measurement": "fold change in gp120 binding (EC50 variant/EC50 WT)", "setting": "[21]", "result": 9.4, "unit": "fold"}, {"measurement": "fold change in gp120 binding (EC50 variant/EC50 WT)", "setting": "[22]", "result": 17.4, "unit": "fold"}]}]}
